Changes are numbered by the printed parent chain.
Columns and labels:
[1] = biological target: T1, human PRLR ECD-Fc fusion protein (human, UniProt P16471 25-233); assay: ELISA on ECD
T1 construct: not shown: Fc region (captured by goat anti-human Fc)
T1 sequence: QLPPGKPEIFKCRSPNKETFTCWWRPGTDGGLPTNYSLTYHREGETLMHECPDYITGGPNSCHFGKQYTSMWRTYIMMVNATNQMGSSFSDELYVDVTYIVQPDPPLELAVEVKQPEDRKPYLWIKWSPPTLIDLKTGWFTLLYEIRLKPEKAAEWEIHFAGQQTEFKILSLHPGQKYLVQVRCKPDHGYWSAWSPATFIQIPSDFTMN
Procedure: Plates were blocked for 1 hour with Superblock (Pierce) and washed (3×) with wash buffer (lx PBS (pH 7.4), 0.05% Tween 20). ECD proteins were bound to the appropriate antibody (1 hour) in binding buffer (wash buffer plus 10% Superblock), washed (3×, wash buffer), and then incubated with serial dilutions of antibodies (1 hour) in binding buffer. After washing (3×, wash buffer), secondary antibodies conjugated to HRP were bound (1 hour) in binding buffer, washed (3×, wash buffer), and incubated with TMB substrate (Pierce) to develop signal for 3-5 minutes, stopped with 2N H₂SO₄ and scanned at […]. Curves were fit with GraphPad 5 (Prizm) and EC50's were determined with curve fitting function of GraphPad 5.

[2] = biological target: cyno PRLR on Baf3-cyPRLR cells (cyno); assay: cell-based or functional assay
[3] = biological target: T2, human PRLR on cells (human, UniProt P16471 25-622); assay: cell-based or functional assay
T2 sequence: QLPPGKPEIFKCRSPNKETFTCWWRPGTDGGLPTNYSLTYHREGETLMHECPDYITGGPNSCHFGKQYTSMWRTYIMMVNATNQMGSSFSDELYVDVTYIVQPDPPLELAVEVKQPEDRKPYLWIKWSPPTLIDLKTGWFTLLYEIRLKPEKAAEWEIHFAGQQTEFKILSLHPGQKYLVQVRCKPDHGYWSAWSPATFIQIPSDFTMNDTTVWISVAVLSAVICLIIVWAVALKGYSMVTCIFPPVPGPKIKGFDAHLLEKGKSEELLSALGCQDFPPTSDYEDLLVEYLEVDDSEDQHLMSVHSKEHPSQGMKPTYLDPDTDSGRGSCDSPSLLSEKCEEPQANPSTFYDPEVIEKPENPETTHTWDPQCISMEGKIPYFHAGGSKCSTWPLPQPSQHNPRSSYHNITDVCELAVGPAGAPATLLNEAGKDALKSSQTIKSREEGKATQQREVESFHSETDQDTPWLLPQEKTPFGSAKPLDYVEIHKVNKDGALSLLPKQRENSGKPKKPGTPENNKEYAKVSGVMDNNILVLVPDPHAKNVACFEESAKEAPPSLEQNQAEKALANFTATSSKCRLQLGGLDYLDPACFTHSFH

[4] = biological target: T3, mouse PRLR on Baf3-mPRLR cells (mouse, UniProt Q08501 20-608); assay: cell-based or functional assay
T3 sequence (looked up): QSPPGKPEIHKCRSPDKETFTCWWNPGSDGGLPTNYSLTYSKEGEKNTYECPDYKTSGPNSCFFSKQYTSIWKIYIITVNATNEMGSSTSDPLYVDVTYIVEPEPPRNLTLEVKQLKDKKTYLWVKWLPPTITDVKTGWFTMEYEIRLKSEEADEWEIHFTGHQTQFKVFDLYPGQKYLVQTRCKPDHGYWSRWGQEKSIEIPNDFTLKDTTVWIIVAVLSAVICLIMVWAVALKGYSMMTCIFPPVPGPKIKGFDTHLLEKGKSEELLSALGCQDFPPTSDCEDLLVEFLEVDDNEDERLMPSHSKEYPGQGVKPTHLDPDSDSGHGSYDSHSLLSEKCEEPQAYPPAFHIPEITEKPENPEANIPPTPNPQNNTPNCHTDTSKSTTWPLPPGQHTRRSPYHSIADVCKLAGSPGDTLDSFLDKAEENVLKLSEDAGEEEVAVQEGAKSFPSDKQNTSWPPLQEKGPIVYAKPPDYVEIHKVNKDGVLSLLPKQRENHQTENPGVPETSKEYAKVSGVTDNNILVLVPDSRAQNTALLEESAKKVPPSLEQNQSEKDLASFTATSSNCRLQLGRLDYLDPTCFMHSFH

[5] = biological target: T4, cyno PRLR (Biacore antigen) (cyno, UniProt A0A2K5WXK1 25-234); assay: SPR Biacore
T4 construct: also called cyPRLR
T4 sequence: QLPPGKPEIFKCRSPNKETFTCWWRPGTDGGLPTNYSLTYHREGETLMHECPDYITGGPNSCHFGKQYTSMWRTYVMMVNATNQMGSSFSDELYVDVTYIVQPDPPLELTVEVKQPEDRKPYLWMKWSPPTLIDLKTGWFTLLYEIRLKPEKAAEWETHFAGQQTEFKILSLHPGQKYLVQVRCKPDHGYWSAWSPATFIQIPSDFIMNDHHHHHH
How it was run: (§1)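 Association rate, dissociation rate and dissociation constant were measured by surface plasmon resonance on a Biacore instrument. PRLR antigen was tested at 600 nM, 66.67 nM and 7.41 nM, a 3-point, 9-fold dilution series. Constants came from a 1:1 binding model fit (local Rmax, mass-transport term included) in Biacore T200 Evaluation Software.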

[6] = biological target: T5, human PRLR (Biacore antigen) (human, UniProt P16471 25-234, limits assumed); assay: SPR Biacore
T5 construct: The construct injected over captured antibody is not described (a soluble form is likely); also called huPRLR
T5 sequence: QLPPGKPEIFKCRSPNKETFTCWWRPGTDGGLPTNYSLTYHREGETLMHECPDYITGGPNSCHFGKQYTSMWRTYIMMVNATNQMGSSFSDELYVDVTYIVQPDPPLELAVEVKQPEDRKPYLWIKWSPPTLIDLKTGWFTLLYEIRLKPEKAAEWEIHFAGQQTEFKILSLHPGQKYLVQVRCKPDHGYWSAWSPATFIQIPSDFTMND
How it was run: as §1

B1: Ab50 (antibody, human IgG1, kappa, V domains shown)
VH: EVQLVQSGAEVKKPGASVKVSCKASGYTFTDYNIHWVRQAPGQGLEWIGYIYPNNDGTGYAQKLQGRVTMTVDTSTSTAYMELRSLRSDDTAVYYCARGDGNYVGDMDYWGQGTTVTVSS
VL: DIQMTQSPSSLSASVGDRVTITCRASENIYSYLAWYQQKPGKAPKLLIYNAKTLAEGVPSRFSGSGSGTDFTLTISSLQPEDFATYYCQHHYATPFTFGQGTKLEIKR
notes: humanized from Ab8; G1; also called Ab3 HC.1b and Ab3 LC.1
EC50 [1]: 0.109 nM | Baf3-cyPRLR proliferation IC50 [2]: 41.6 µg/mL | Baf3-hPRLR proliferation IC50 [3]: 0.51 µg/mL | Baf3-mPRLR proliferation IC50 [4]: > 30 µg/mL

B2: Ab51 (antibody, human IgG1, kappa, V domains shown)
VH: B1 VH
VL: B1 VL with A43P, I48V
notes: humanized from Ab8; G1; also called Ab3 HC.1b and Ab3 LC.1a
EC50 [1]: 0.287 nM | Baf3-cyPRLR proliferation IC50 [2]: 100 µg/mL | Baf3-hPRLR proliferation IC50 [3]: 0.55 µg/mL | Baf3-mPRLR proliferation IC50 [4]: > 30 µg/mL

B3: Ab52 (antibody, human IgG1, kappa, V domains shown)
VH: B1 VH
VL: B1 VL with I48V
notes: humanized from Ab8; G1; also called Ab3 HC.1b and Ab3 LC.1b
EC50 [1]: 0.0913 nM | Baf3-cyPRLR proliferation IC50 [2]: 305 µg/mL | Baf3-hPRLR proliferation IC50 [3]: 0.51 µg/mL | Baf3-mPRLR proliferation IC50 [4]: > 30 µg/mL

B4: Ab53 (antibody, human IgG1, kappa, V domains shown)
VH: EVQLVQSGAEVKKPGSSVKVSCKASGYTFTSYWIHWVRQAPGQGLEWIGEIDPSDSYTNYNQKFKGRVTITVDKSTSTAYMELSSLRSEDTAVYYCARSFFTNWFAYWGQGTLVTVSS
VL: DVVMTQTPLSLSVTPGQPASISCRSSQSLVHSNGNTYLHWYLQKPGQSPQLLIYKVSNRFSGVPDRFSGSGSGTDFTLKISRVEAEDVGVYFCSQSTHVPFTFGGGTKVEIKR
notes: humanized from Ab7 (back mutations on Ab36); G1; also called Ab4 HC.1b.2 and Ab4 LC.1a
Baf3-hPRLR proliferation IC50 [3]: 1.03 µg/mL | Kd [5]: 7.8 nM | koff [5]: 0.00089 s⁻¹ | kon [5]: 110000 M⁻¹ s⁻¹ | Kd [6]: 8.5 nM | koff [6]: 0.001 s⁻¹ | kon [6]: 120000 M⁻¹ s⁻¹

B5: Ab42 (antibody, human IgG1, kappa, V domains shown)
VH: B4 VH with Y27G, N61A, K65Q
VL: B4 VL
Baf3-hPRLR proliferation IC50 [3]: 4.76 µg/mL

B6: Ab22 (antibody, human IgG1, kappa, V domains shown)
VH: EVQLVQSGAEVKKPGSSVKVSCKASGGTFTTYWMHWVRQAPGQGLEWIGEIDPSDSYSNYAQKFQGRVTITVDKSTSTAYMELSSLRSEDTAVYYCARNGGLGPAWFSYWGQGTLVTVSS
VL: DIQMTQSPSSVSASVGDRVTITCKASQYVGTAVAWYQQKPGKAPKLLIYSASNRYTGVPSRFSGSGSGTDFTLTISSLQPEDFATYYCQQYSSYPWTFGGGTKVEIKR
Baf3-hPRLR proliferation IC50 [3]: > 30 µg/mL

B7: Ab24 (antibody, human IgG1, kappa, V domains shown)
VH: B6 VH
VL: EIVMTQSPATLSVSPGERATLSCKASQYVGTAVAWYQQKPGQAPRLLIYSASNRYTGIPARFSGSGSGTEFTLTISSLQSEDFAVYYCQQYSSYPWTFGGGTKVEIKR
Baf3-hPRLR proliferation IC50 [3]: > 30 µg/mL

B8: Ab25 (antibody, human IgG1, kappa, V domains shown)
VH: B6 VH
VL: B7 VL with A43S, I58V, G64D, Y87F
Baf3-hPRLR proliferation IC50 [3]: > 30 µg/mL

B9: Ab23 (antibody, human IgG1, kappa, V domains shown)
VH: B6 VH
VL: B6 VL with A43S, G64D, Y87F
Baf3-hPRLR proliferation IC50 [3]: > 30 µg/mL

B10: chAb9 (antibody, human IgG1, kappa, V domains shown)
VH: EVQLQQSGPELVRPGASVKISCKASGYSFTDYNMHWVKQSHGKSLEWIGYIYPYNGGAGYNQKFKSKATMNVGISSSTAYMELRSLTSEDSAVYYCARGDGNYVGDMDYWGQGTSVTVSS
VL: DIQMTQSPASLSASVGETVTITCRASENIYSYLAWYQQKQGKSPQLLVYNAKTLAEGVPSRFSGSGSGTQFSLKINSLQPEDFGSYYCQHHSGTPFTFGSGTKLEIKT
Baf3-cyPRLR proliferation IC50 [2]: 10.4 µg/mL | Baf3-hPRLR proliferation IC50 [3]: 0.2 µg/mL

B11: Ab32 (antibody, human IgG1, kappa)
heavy: not shown
light: DIVMTQTPLSLSVTPGQPASISCRSSQRLVHSNGNTYLHWYLQKPGQSPQLLIYKVSNRFSGVPDRFSGSGSGTDFTLKISRVEAEDVGVYYCSQSTHVPWTFGGGTKVEIKRTVAAPSVFIFPPSDEQLKSGTASVVCLLNNFYPREAKVQWKVDNALQSGNSQESVTEQDSKDSTYSLSSTLTLSKADYEKHKVYACEVTHQGLSSPVTKSFNRGEC
Baf3-hPRLR proliferation IC50 [3]: > 30 µg/mL

B12: Ab41 (antibody, human IgG1, kappa)
heavy: not shown
light: B11 light with R28S, W101F
Baf3-hPRLR proliferation IC50 [3]: 4.38 µg/mL

B13: Ab34 (antibody, human IgG1, kappa)
heavy: not shown
light: B11 light with I2V
Baf3-hPRLR proliferation IC50 [3]: > 30 µg/mL

B14: Ab33 (antibody, human IgG1, kappa, V domains shown)
VH: EVQLVQSGAEVKKPGSSVKVSCKASGGTFTSFWMHWVRQAPGQGLEWIGVIDPSDTYTNYAQKFQGRVTITVDESTSTAYMELSSLRSEDTAVYYCARGDYSNWFTYWGQGTLVTVSS
VL: B4 VL with S28R, F101W
Baf3-hPRLR proliferation IC50 [3]: > 30 µg/mL

B15: Ab43 (antibody, human IgG1, kappa)
heavy: not shown
light: B11 light with I2V, R28S, W101F
Baf3-hPRLR proliferation IC50 [3]: 6.75 µg/mL

From patent US20170022281A1 (AbbVie / Abbott, published 2017)
